Blank lines part the entries; values can stand above or below the binder they belong to.
How the values were obtained:
[1] = biological target: KEAP1 (wild-type full-length), His-tagged (human) (UniProt Q14145); test: AlphaScreen; 1228.8 nM FLAG-NRF2, 150 nM His-KEAP1; Rep 2; control for I28V
[2] = biological target: KEAP1 (wild-type full-length), His-tagged (human) (UniProt Q14145); test: AlphaScreen; FLAG-NRF2 wt isoform 1 38.4 nM, His-KEAP1 150 nM; Repeat 1; positive control for Q75R
[3] = biological target: KEAP1 (wild-type full-length), His-tagged (human) (UniProt Q14145); test: AlphaScreen; 1228.8 nM FLAG-NRF2, 150 nM His-KEAP1; signal against NRF2 only; control for I86V
[4] = biological target: KEAP1 (wild-type full-length), His-tagged (human) (UniProt Q14145); test: AlphaScreen; 19.2 nM FLAG-NRF2, 150 nM His-KEAP1; Rep 2; control for I28V
[5] = biological target: KEAP1 (wild-type full-length), His-tagged (human) (UniProt Q14145); test: AlphaScreen; 153.6 nM FLAG-NRF2, 150 nM His-KEAP1; Rep 1; control for I86V
[6] = biological target: KEAP1 (wild-type full-length), His-tagged (human) (UniProt Q14145); test: AlphaScreen; 2.4 nM FLAG-NRF2, 150 nM His-KEAP1; signal against NRF2 only; control for I28V
[7] = biological target: KEAP1 (wild-type full-length), His-tagged (human) (UniProt Q14145); test: AlphaScreen; 4.8 nM FLAG-NRF2, 150 nM His-KEAP1; Rep 1; control for I86V
[8] = biological target: KEAP1 (wild-type full-length), His-tagged (human) (UniProt Q14145); test: AlphaScreen; 614.4 nM FLAG-NRF2, 150 nM His-KEAP1; Rep 2; control for I28V
[9] = biological target: KEAP1 (wild-type full-length), His-tagged (human) (UniProt Q14145); test: AlphaScreen; FLAG-NRF2 wt isoform 1 153.6 nM, His-KEAP1 150 nM; Rep 2; positive control for Q75R
[10] = biological target: KEAP1 (wild-type full-length), His-tagged (human) (UniProt Q14145); test: AlphaScreen; 4.8 nM FLAG-NRF2, 150 nM His-KEAP1; Rep 2; control for I86V
[11] = biological target: KEAP1 (wild-type full-length), His-tagged (human) (UniProt Q14145); test: AlphaScreen; 19.2 nM FLAG-NRF2, 150 nM His-KEAP1; wild type set to 100%
[12] = biological target: KEAP1 (wild-type full-length), His-tagged (human) (UniProt Q14145); test: AlphaScreen; FLAG-NRF2 wt isoform 1 19.2 nM, His-KEAP1 150 nM; Repeat 1; positive control for Q75R
[13] = biological target: KEAP1 (wild-type full-length), His-tagged (human) (UniProt Q14145); test: AlphaScreen; NRF2 wt isoform 1 9.6 nM, KEAP1 150 nM; set as the 100 % reference for I86V
[14] = biological target: KEAP1 (wild-type full-length), His-tagged (human) (UniProt Q14145); test: AlphaScreen; mean over 9.6, 19.2 and 38.4 nM NRF2; 150 nM His-KEAP1; against wild-type NRF2 isoform 1 = 100%
[15] = biological target: KEAP1 (wild-type full-length), His-tagged (human) (UniProt Q14145); test: AlphaScreen; 307.2 nM FLAG-NRF2, 150 nM His-KEAP1; Rep 1
[16] = biological target: KEAP1 (wild-type full-length), His-tagged (human) (UniProt Q14145); test: AlphaScreen; 38.4 nM FLAG-NRF2, 150 nM His-KEAP1; Rep 2
[17] = biological target: KEAP1 (wild-type full-length), His-tagged (human) (UniProt Q14145); test: AlphaScreen; standard deviation of three conditions; against wild-type NRF2 isoform 1
[18] = biological target: KEAP1 (wild-type full-length), His-tagged (human) (UniProt Q14145); test: AlphaScreen; 19.2 nM FLAG-NRF2, 150 nM His-KEAP1; Repeat 2 (same value as in Table 27)
[19] = biological target: KEAP1 (wild-type full-length), His-tagged (human) (UniProt Q14145); test: AlphaScreen; 19.2 nM FLAG-NRF2, 150 nM His-KEAP1; Rep 1
[20] = biological target: KEAP1 (wild-type full-length), His-tagged (human) (UniProt Q14145); test: AlphaScreen; FLAG-NRF2 Q75R 19.2 nM, His-KEAP1 150 nM; Repeat 1
[21] = biological target: KEAP1 (wild-type full-length), His-tagged (human) (UniProt Q14145); test: AlphaScreen; FLAG-NRF2 Q75R 19.2 nM, His-KEAP1 150 nM; Rep 1
[22] = biological target: KEAP1 (wild-type full-length), His-tagged (human) (UniProt Q14145); test: AlphaScreen; FLAG-NRF2 Q75R 19.2 nM, His-KEAP1 150 nM; Repeat 2
[23] = biological target: KEAP1 (wild-type full-length), His-tagged (human) (UniProt Q14145); test: AlphaScreen; FLAG-NRF2 I86V 19.2 nM, His-KEAP1 150 nM; Rep 2
[24] = biological target: KEAP1 (wild-type full-length), His-tagged (human) (UniProt Q14145); test: AlphaScreen; FLAG-NRF2 I86V 307.2 nM, His-KEAP1 150 nM; Rep 3
[25] = biological target: KEAP1 (wild-type full-length), His-tagged (human) (UniProt Q14145); test: AlphaScreen; FLAG-NRF2 I86V 4.8 nM, His-KEAP1 150 nM; Rep 3
[26] = biological target: KEAP1 (wild-type full-length), His-tagged (human) (UniProt Q14145); test: AlphaScreen; FLAG-NRF2 I86V 19.2 nM, His-KEAP1 150 nM; Rep 3
[27] = biological target: KEAP1 (wild-type full-length), His-tagged (human) (UniProt Q14145); test: AlphaScreen; NRF2 I86V 9.6 nM, KEAP1 150 nM; relative to wild-type NRF2 isoform 1 (100 %)

Sequence of KEAP1 (wild-type full-length), His-tagged (human) (Q14145 2-624 limits assumed): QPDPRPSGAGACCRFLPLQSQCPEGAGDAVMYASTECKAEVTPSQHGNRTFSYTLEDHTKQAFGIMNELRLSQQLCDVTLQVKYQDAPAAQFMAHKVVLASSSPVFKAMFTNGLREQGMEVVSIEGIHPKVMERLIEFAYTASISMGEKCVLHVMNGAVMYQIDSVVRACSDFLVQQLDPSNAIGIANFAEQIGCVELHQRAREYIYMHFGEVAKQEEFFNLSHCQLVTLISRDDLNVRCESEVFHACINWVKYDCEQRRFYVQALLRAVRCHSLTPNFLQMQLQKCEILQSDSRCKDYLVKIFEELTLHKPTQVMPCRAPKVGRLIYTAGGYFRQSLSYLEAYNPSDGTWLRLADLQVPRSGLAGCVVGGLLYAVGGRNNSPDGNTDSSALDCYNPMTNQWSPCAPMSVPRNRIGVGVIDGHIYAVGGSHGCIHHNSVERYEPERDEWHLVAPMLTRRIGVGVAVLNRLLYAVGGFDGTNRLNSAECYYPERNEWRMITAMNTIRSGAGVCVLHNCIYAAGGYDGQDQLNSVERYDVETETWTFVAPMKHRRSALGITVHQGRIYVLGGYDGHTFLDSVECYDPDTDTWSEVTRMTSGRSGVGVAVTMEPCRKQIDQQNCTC

- A-counts [1]: 1520 A-counts
- A-counts (NRF2 plus KEAP1) [2]: 1480 A-counts
- S/N [3]: 1
- A-counts [4]: 2000 A-counts
- A-counts [5]: 3060 A-counts
- S/N [6]: 2.2
- A-counts [7]: 1810 A-counts
- A-counts [8]: 1810 A-counts
- A-counts (NRF2 plus KEAP1) [9]: 1500 A-counts
- A-counts [10]: 1620 A-counts
- Binding Percentage (%) [11]: 100%
- A-counts (NRF2 plus KEAP1) [12]: 1360 A-counts
- Binding Percentage [13]: 100%
B1: NRF2 isoform 1 (wild-type full-length), FLAG-tagged (protein)
chain: MMDLELPPPGLPSQQDMDLIDILWRQDIDLGVSREVFDFSQRRKEYELEKQKKLEKERQEQLQKEQEKAFFAQLQLDEETGEFLPIQPAQHIQSETSGSANYSQVAHIPKSDALYFDDCMQLLAQTFPFVDDNEVSSATFQSLVPDIPGHIESPVFIATNQAQSPETSVAQVAPVDLDGMQQDIEQVWEELLSIPELQCLNIENDKLVETTMVPSPEAKLTEVDNYHFYSSIPSMEKEVGNCSPHFLNAFEDSFSSILSTEDPNQLTVNSLNSDATVNTDFGDEFYSAFIAEPSISNSMPSPATLSHSLSELLNGPIDVSDLSLCKAFNQNHPESTAEFNDSDSGISLNTSPSVASPEHSVESSSYGDTLLGLSDSEVEELDSAPGSVKQNGPKTPVHSSGDMVQPLSPSQGQSTHVHDAQCENTPEKELPVSPGHRKTPFTKDKHSSRLEAHLTRDELRAKALHIPFPVEKIINLPVVDFNEMMSKEQFNEAQLALIRDIRRRGKNKVAAQNCRKRKLENIVELEQDLDHLKDEKEKLLKEKGENDKSLHLLKKQLSTLYLEVFSMLRDEDGKPYSPSEYSLQQTRDGNVFLVPKSKKPDVKKN

- Average Binding [14]: 69.8%
- A-counts [15]: 1310 A-counts
- A-counts [16]: 1680 A-counts
- Reported Value (standard deviation of reduction in binding) [17]: 7.2%
- A-counts [18]: 1700 A-counts
- A-counts [19]: 1730 A-counts
B2: NRF2 isoform 1 (I28V full-length), FLAG-tagged (protein)
chain: MMDLELPPPGLPSQQDMDLIDILWRQDVDLGVSREVFDFSQRRKEYELEKQKKLEKERQEQLQKEQEKAFFAQLQLDEETGEFLPIQPAQHIQSETSGSANYSQVAHIPKSDALYFDDCMQLLAQTFPFVDDNEVSSATFQSLVPDIPGHIESPVFIATNQAQSPETSVAQVAPVDLDGMQQDIEQVWEELLSIPELQCLNIENDKLVETTMVPSPEAKLTEVDNYHFYSSIPSMEKEVGNCSPHFLNAFEDSFSSILSTEDPNQLTVNSLNSDATVNTDFGDEFYSAFIAEPSISNSMPSPATLSHSLSELLNGPIDVSDLSLCKAFNQNHPESTAEFNDSDSGISLNTSPSVASPEHSVESSSYGDTLLGLSDSEVEELDSAPGSVKQNGPKTPVHSSGDMVQPLSPSQGQSTHVHDAQCENTPEKELPVSPGHRKTPFTKDKHSSRLEAHLTRDELRAKALHIPFPVEKIINLPVVDFNEMMSKEQFNEAQLALIRDIRRRGKNKVAAQNCRKRKLENIVELEQDLDHLKDEKEKLLKEKGENDKSLHLLKKQLSTLYLEVFSMLRDEDGKPYSPSEYSLQQTRDGNVFLVPKSKKPDVKKN

- A-counts (NRF2 plus KEAP1) [20]: 1300 A-counts
- A-counts (NRF2 plus KEAP1) [21]: 1300 A-counts
- A-counts (NRF2 plus KEAP1) [22]: 1280 A-counts
B3: NRF2 isoform 1 (Q75R full-length), FLAG-tagged (protein)
chain: MMDLELPPPGLPSQQDMDLIDILWRQDIDLGVSREVFDFSQRRKEYELEKQKKLEKERQEQLQKEQEKAFFAQLRLDEETGEFLPIQPAQHIQSETSGSANYSQVAHIPKSDALYFDDCMQLLAQTFPFVDDNEVSSATFQSLVPDIPGHIESPVFIATNQAQSPETSVAQVAPVDLDGMQQDIEQVWEELLSIPELQCLNIENDKLVETTMVPSPEAKLTEVDNYHFYSSIPSMEKEVGNCSPHFLNAFEDSFSSILSTEDPNQLTVNSLNSDATVNTDFGDEFYSAFIAEPSISNSMPSPATLSHSLSELLNGPIDVSDLSLCKAFNQNHPESTAEFNDSDSGISLNTSPSVASPEHSVESSSYGDTLLGLSDSEVEELDSAPGSVKQNGPKTPVHSSGDMVQPLSPSQGQSTHVHDAQCENTPEKELPVSPGHRKTPFTKDKHSSRLEAHLTRDELRAKALHIPFPVEKIINLPVVDFNEMMSKEQFNEAQLALIRDIRRRGKNKVAAQNCRKRKLENIVELEQDLDHLKDEKEKLLKEKGENDKSLHLLKKQLSTLYLEVFSMLRDEDGKPYSPSEYSLQQTRDGNVFLVPKSKKPDVKKN

- A-counts (NRF2 plus KEAP1) [23]: 3160 A-counts
- A-counts (NRF2 plus KEAP1) [24]: 2140 A-counts
- A-counts (NRF2 plus KEAP1) [25]: 2180 A-counts
- A-counts (NRF2 plus KEAP1) [26]: 2970 A-counts
- Binding Percentage [27]: 99.1%
B4: NRF2 isoform 1 (I86V full-length), FLAG-tagged (protein)
chain: MMDLELPPPGLPSQQDMDLIDILWRQDIDLGVSREVFDFSQRRKEYELEKQKKLEKERQEQLQKEQEKAFFAQLQLDEETGEFLPVQPAQHIQSETSGSANYSQVAHIPKSDALYFDDCMQLLAQTFPFVDDNEVSSATFQSLVPDIPGHIESPVFIATNQAQSPETSVAQVAPVDLDGMQQDIEQVWEELLSIPELQCLNIENDKLVETTMVPSPEAKLTEVDNYHFYSSIPSMEKEVGNCSPHFLNAFEDSFSSILSTEDPNQLTVNSLNSDATVNTDFGDEFYSAFIAEPSISNSMPSPATLSHSLSELLNGPIDVSDLSLCKAFNQNHPESTAEFNDSDSGISLNTSPSVASPEHSVESSSYGDTLLGLSDSEVEELDSAPGSVKQNGPKTPVHSSGDMVQPLSPSQGQSTHVHDAQCENTPEKELPVSPGHRKTPFTKDKHSSRLEAHLTRDELRAKALHIPFPVEKIINLPVVDFNEMMSKEQFNEAQLALIRDIRRRGKNKVAAQNCRKRKLENIVELEQDLDHLKDEKEKLLKEKGENDKSLHLLKKQLSTLYLEVFSMLRDEDGKPYSPSEYSLQQTRDGNVFLVPKSKKPDVKKN

— patent US20250352667A1
